Test results: publication PMC3034952 (Enzyme Research, 2011)

Key:
Test in all cases: SEC; purified recombinant AtPDC E1 on a Superose 12 column in 50 mM TES-NaOH, pH 7.4, 50 mM NaCl, 0.1 mM TPP, 0.2 mM MgCl2; fractions analysed by SDS-PAGE and immunoblotting
Details in all cases: both partners purified
[1] = target: T1, AtPDC E1α S292D mutant, H6-tagged (Arabidopsis thaliana, UniProt P52901 18-389, S292D)
T1 sequence (looked up): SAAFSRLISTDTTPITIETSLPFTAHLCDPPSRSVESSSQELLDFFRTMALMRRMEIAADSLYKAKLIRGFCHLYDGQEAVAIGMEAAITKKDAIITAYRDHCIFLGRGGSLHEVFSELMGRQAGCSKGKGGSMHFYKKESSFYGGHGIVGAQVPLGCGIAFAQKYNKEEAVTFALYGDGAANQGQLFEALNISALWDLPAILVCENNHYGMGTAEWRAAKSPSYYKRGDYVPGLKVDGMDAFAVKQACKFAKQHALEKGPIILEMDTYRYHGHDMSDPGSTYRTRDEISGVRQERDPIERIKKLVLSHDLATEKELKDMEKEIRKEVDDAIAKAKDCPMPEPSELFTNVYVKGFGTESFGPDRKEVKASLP

[2] = target: T2, AtPDC E1α S292D/S298A double mutant, H6-tagged (Arabidopsis thaliana, UniProt P52901 18-389, S292D | S298A)
T2 sequence (looked up): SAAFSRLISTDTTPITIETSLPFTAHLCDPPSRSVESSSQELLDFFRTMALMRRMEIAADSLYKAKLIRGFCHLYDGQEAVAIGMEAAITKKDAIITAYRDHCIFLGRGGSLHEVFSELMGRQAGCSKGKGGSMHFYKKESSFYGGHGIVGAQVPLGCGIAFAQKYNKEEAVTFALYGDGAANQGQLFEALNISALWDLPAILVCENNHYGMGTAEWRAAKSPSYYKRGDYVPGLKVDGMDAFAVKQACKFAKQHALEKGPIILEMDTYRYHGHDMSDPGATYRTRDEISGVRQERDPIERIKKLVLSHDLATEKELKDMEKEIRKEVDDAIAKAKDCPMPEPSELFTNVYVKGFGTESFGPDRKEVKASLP

[3] = target: T3, AtPDC E1α S292A mutant, H6-tagged (Arabidopsis thaliana, UniProt P52901 18-389, S292A)
T3 sequence (looked up): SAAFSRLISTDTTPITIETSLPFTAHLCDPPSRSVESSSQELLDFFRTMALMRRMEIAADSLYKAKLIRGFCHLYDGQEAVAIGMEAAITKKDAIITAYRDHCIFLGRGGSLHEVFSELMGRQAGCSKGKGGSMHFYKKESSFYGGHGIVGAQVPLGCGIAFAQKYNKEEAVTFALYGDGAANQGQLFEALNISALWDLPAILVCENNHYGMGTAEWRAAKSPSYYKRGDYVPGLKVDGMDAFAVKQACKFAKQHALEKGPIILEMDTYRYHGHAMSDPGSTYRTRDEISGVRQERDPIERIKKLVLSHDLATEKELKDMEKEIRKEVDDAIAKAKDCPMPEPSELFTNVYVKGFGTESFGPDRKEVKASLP

[4] = target: T4, AtPDC E1α D295L mutant, H6-tagged (Arabidopsis thaliana, UniProt P52901 18-389, D295L)
T4 sequence (looked up): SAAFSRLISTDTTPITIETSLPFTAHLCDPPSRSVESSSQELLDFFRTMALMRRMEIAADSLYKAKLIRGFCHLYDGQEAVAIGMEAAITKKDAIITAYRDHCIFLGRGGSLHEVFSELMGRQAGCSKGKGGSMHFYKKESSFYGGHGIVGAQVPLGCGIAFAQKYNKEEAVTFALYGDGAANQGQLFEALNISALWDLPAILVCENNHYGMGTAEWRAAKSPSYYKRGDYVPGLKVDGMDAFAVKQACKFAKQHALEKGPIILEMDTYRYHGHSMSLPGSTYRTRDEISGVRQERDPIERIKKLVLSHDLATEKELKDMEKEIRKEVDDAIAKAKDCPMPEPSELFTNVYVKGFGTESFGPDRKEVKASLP

[5] = target: T5, AtPDC E1α G297D mutant, H6-tagged (Arabidopsis thaliana, UniProt P52901 18-389, G297D)
T5 sequence (looked up): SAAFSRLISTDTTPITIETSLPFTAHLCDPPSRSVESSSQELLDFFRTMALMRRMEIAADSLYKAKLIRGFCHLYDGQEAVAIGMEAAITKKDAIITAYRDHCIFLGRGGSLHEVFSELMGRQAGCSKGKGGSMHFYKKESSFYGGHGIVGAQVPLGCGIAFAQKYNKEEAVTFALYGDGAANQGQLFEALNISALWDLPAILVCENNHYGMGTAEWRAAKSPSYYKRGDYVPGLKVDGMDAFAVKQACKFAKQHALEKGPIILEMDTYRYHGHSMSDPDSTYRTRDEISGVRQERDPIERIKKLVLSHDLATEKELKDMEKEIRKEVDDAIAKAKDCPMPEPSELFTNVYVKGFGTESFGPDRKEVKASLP

Measured: binding result

B1: Arabidopsis thaliana mitochondrial pyruvate dehydrogenase E1β subunit (AtPDC E1β), FLAG-tagged (enzyme, UniProt Q38799 30-363, looked up)
chain: AAGAKEMTVRDALNSAIDEEMSADPKVFVMGEEVGQYQGAYKITKGLLEKYGPERVYDTPITEAGFTGIGVGAAYAGLKPVVEFMTFNFSMQAIDHIINSAAKSNYMSAGQINVPIVFRGPNGAAAGVGAQHSQCYAAWYASVPGLKVLAPYSAEDARGLLKAAIRDPDPVVFLENELLYGESFPISEEALDSSFCLPIGKAKIEREGKDVTIVTFSKMVGFALKAAEKLAEEGISAEVINLRSIRPLDRATINASVRKTSRLVTVEEGFPQHGVCAEICASVVEESFSYLDAPVERIAGADVPMPYAANLERLALPQIEDIVRASKRACYRSK
binds: all assays above
